Source: patent publication US8063008B2, “Enzymatic production of peracids using perhydrolytic enzymes” (E. I. du Pont de Nemours and Company, priority 2005, dated 2011)

B1: ICR-107: Pseudomonas cepacia lipase, BioCatalytics (protein, UniProt P22088 45-364, looked up)
Triacylglycerol lipase: AAGYAATRYPIILVHGLSGTDKYAGVLEYWYGIQEDLQQNGATVYVANLSGFQSDDGPNGRGEQLLAYVKTVLAATGATKVNLVGHSQGGLSSRYVAAVAPDLVASVTTIGTPHRGSEFADFVQDVLAYDPTGLSSSVIAAFVNVFGILTSSSHNTNQDALAALQTLTTARAATYNQNYPSAGLGAPGSCQTGAPTETVGGNTHLLYSWAGTAIQPTLSVFGVTGATDTSTLPLVDPANVLDLSTLALFGTGTVMINRGSGQNDGLVSKCSALYGKVLSTSYKWNHLDEINQLLGVRGAYAEDPVAVIRTHANRLKLAGV
B2: ICR-116: Mucor miehei lipase, BioCatalytics (protein, UniProt P19515 95-363, looked up)
Lipase: SIDGGIRAATSQEINELTYYTTLSANSYCRTVIPGATWDCIHCDATEDLKIIKTWSTLIYDTNAMVARGDSEKTIYIVFRGSSSIRNWIADLTFVPVSYPPVSGTKVHKGFLDSYGEVQNELVATVLDQFKQYPSYKVAVTGHSLGGATALLCALDLYQREEGLSSSNLFLYTQGQPRVGDPAFANYVVSTGIPYRRTVNERDIVPHLPPAAFGFLHAGEEYWITDNSPETVQVCTSDLETSDCSNSIVPFTSVLDHLSYFGINTGLCT
B3: ICR-115: Thermomyces languinosus lipase, BioCatalytics (protein, UniProt O59952 23-291, looked up)
Lipase: EVSQDLFNQFNLFAQYSAAAYCGKNNDAPAGTNITCTGNACPEVEKADATFLYSFEDSGVGDVTGFLALDNTNKLIVLSFRGSRSIENWIGNLNFDLKEINDICSGCRGHDGFTSSWRSVADTLRQKVEDAVREHPDYRVVFTGHSLGGALATVAGADLRGNGYDIDVFSYGAPRVGNRAFAEFLTVQTGGTLYRITHTNDIVPRLPPREFGYSHSSPEYWIKSGTLVPVTRNDIVKIEGIDATGGNNQPNIPDIPAHLWYFGLIGTCL
B4: ICR-114: porcine pancreas lipase, BioCatalytics (protein, UniProt P00591 1-450, looked up)
Pancreatic triacylglycerol …: SEVCFPRLGCFSDDAPWAGIVQRPLKILPWSPKDVDTRFLLYTNQNQNNYQELVADPSTITNSNFRMDRKTRFIIHGFIDKGEEDWLSNICKNLFKVESVNCICVDWKGGSRTGYTQASQNIRIVGAEVAYFVEVLKSSLGYSPSNVHVIGHSLGSHAAGEAGRRTNGTIERITGLDPAEPCFQGTPELVRLDPSDAKFVDVIHTDAAPIIPNLGFGMSQTVGHLDFFPNGGKQMPGCQKNILSQIVDIDGIWEGTRDFVACNHLRSYKYYADSILNPDGFAGFPCDSYNVFTANKCFPCPSEGCPQMGHYADRFPGKTNGVSQVFYLNTGDASNFARWRYKVSVTLSGKKVTGHILVSLFGNEGNSRQYEIYKGTLQPDNTHSDEFDSDVEVGDLQKVKFIWYNNNVINPTLPRVGASKITVERNDGKVYDFCSQETVREEVLLTLNPC
B5: Proteinase K, T. album, recombinantly expressed in P. pastoris: Proteinase K, T. album, recombinantly expressed in P. pastoris, Roche 3115879 (protein, UniProt P06873 106-384, looked up)
Proteinase K: AAQTNAPWGLARISSTSPGTSTYYYDESAGQGSCVYVIDTGIEASHPEFEGRAQMVKTYYYSSRDGNGHGTHCAGTVGSRTYGVAKKTQLFGVKVLDDNGSGQYSTIIAGMDFVASDKNNRNCPKGVVASLSLGGGYSSSVNSAAARLQSSGVMVAVAAGNNNADARNYSPASEPSVCTVGASDRYDRRSSFSNYGSVLDIFGPGTSILSTWIGGSTRSISGTSMATPHVAGLAAYLMTLGKTTAASACRYIADTANKGDLSNIPFGTVNLLAYNNYQA
modifications: recombinant, Pichia pastoris
B6: Proteinase K, T. album: Proteinase K, T. album, Novagen 70663; a fungal subtilisin from Tritirachium album (protein, UniProt P06873 106-384, looked up)
Proteinase K: B5 Proteinase K

Columns and labels:
Assay type in all cases: biochemical
[1] = Lipase-catalyzed perhydrolysis of a mixture of diacetin, triacetin and monoacetin at pH 6.5 (Example 4); details: diacetin (278 mM), triacetin (144 mM), monoacetin (131 mM); for 250 mM H2O2 peracetic acid (ppm), 5 min / 250 mM H2O2 peracetic acid (ppm), 30 min: pH 6.5, 250 mM H2O2, 1 mg enzyme; for 500 mM H2O2 peracetic acid (ppm), 5 min / 500 mM H2O2 peracetic acid (ppm), 30 min: pH 6.5, 500 mM H2O2, 1 mg enzyme
Procedure: Into a 4-mL glass vial with stir bar was added 1 mg enzyme (ICR 101-117, BioCatalytics, Pasadena, Calif.) in 0.050 mL of 50 mM potassium phosphate buffer (pH 6.5), 0.900 mL of an aqueous mixture containing diacetin (278 mM), triacetin (144 mM) and monoacetin (131 mM) in 50 mM potassium phosphate buffer (pH 6.5), and either 0.052 mL 30% hydrogen peroxide (500 mM final concentration) or 0.026 mL 30% hydrogen peroxide (250 mM final concentration). […] A portion of the filtered reaction samples was diluted 1:10 with dd water and analyzed for hydrogen peroxide, and the remaining portion of the sample was directly analyzed for peracid using the HPLC assay method (Table 4).

[2] = Lipase-catalyzed perhydrolysis of triacetin at pH 4.0 (Example 2); details: 250 mM triacetin, 500 mM H2O2, pH 4.0, 1 mg enzyme, 22° C.
Procedure: Into a 4-mL glass vial with stir bar was added 1 mg enzyme (ICR 101-117, BioCatalytics, Pasadena, Calif.) in 0.050 mL of 50 mM sodium acetate/acetic acid buffer (pH 4.0), 0.900 mL of 278 mM triacetin in 50 mM sodium acetate/acetic acid buffer (pH 4.0, 250 mM final triacetin concentration), and 0.052 mL 30% hydrogen peroxide (500 mM final concentration). […] A portion of the filtered reaction samples was diluted 1:10 with dd water and analyzed for hydrogen peroxide, and the remaining portion of the sample was directly analyzed for peracid using the HPLC assay method (Table 2).

[3] = Lipase-catalyzed perhydrolysis of triacetin at pH 6.5 (Example 1); details: 250 mM triacetin, 500 mM H2O2, pH 6.5, 1 mg enzyme, 22° C.
Procedure: Into a 4-mL glass vial with stir bar was added 1 mg enzyme (ICR 101-117, BioCatalytics, Pasadena, Calif.) in 0.050 mL of 50 mM potassium phosphate buffer (pH 6.5), 0.900 mL of 278 mM triacetin in 50 mM potassium phosphate buffer (pH 6.5, 250 mM final triacetin concentration), and 0.052 mL 30% hydrogen peroxide (500 mM final concentration). After stirring for 5 or 30 minutes at 22° C., a 0.250 mL sample was filtered using a 30,000 Nominal Molecular Weight Limit (NMWL) filter (Millipore UltraFree-MC, Millipore Corp., Billerica, Mass.) centrifuged for 2 minute at 12,000 RPM. A portion of the filtered reaction samples was diluted 1:10 with dd water and analyzed for hydrogen peroxide, and the remaining portion of the sample was directly analyzed for peracid using the HPLC assay method (Table 1).

[4] = Protease-catalyzed perhydrolysis of acetamide at pH 6.5 (Example 9); details: pH 6.5, 500 mM H2O2, 1 mg protease
Procedure: (§1) Into a 4-mL glass vial with stir bar was added 1 mg protease (Table 6) in 0.050 mL of 50 mM potassium phosphate buffer (pH 6.5), 0.900 mL of an aqueous mixture containing either a) acetamide (278 mM) in 50 mM potassium phosphate buffer (pH 6.5) or b) diacetamide (278 mM) in 50 mM potassium phosphate buffer (pH 6.5), and 0.052 mL 30% hydrogen peroxide (500 mM final concentration). […] A portion of the filtered reaction samples was diluted 1:10 with dd water and analyzed for hydrogen peroxide, and the remaining portion of the sample was directly analyzed for peracid using the HPLC assay method (Table 10).

[5] = Protease-catalyzed perhydrolysis of acetamide at pH 4.0 (Example 6); details: pH 4.0, 500 mM H2O2, 1 mg protease
Procedure: as §1, with “sodium acetate/acetic acid” for “potassium phosphate”, “4.0),” for “6.5),”, “4.0)” for “6.5)”, “7).” for “10).”

[6] = Protease-catalyzed perhydrolysis of diacetamide at pH 6.5 (Example 9); details: pH 6.5, 500 mM H2O2, 1 mg protease
Procedure: as §1

[7] = Enzymatic perhydrolysis of triacetin using a combination of lipase and proteases (Proteinase K, Pronase) at pH 4.0 and 6.5 (Example 10); details: H2O2 500 mM, 1 mg lipase, 0.3 mg Proteinase K, 1.2 mg Pronase
Procedure: Reaction mixtures were prepared containing 1 mg lipase (ICR 101, ICR-110, or ICR-117, BioCatalytics, Pasadena, Calif.), 0.3 mg Proteinase K (T. album), and 1.2 mg of Pronase in 1.0 mL of 50 mM buffer (either sodium acetate/acetic acid buffer at pH 4.0, or potassium phosphate buffer at pH 6.5), additionally containing triacetin (250 mM) and hydrogen peroxide (500 mM). […] A portion of the filtered reaction samples was diluted 1:10 with dd water and analyzed for hydrogen peroxide, and the remaining portion of the sample was directly analyzed for peracid using the HPLC assay method (Table 11). Reactions were also run with lipase alone or protease(s) alone for comparison of peracetic acid concentrations produced without the combination of lipase and protease(s).

| Molecule | 250 mM H2O2 peracetic acid (ppm), 5 min [1] | 250 mM H2O2 peracetic acid (ppm), 30 min [1] | 500 mM H2O2 peracetic acid (ppm), 5 min [1] | 500 mM H2O2 peracetic acid (ppm), 30 min [1] | peracetic acid (ppm), 5 min [2] | peracetic acid (ppm), 30 min [2] | peracetic acid (ppm), 5 min [3] | peracetic acid (ppm), 30 min [3] | acetamide (250 mM) peracetic acid (ppm), 5 min [4] | acetamide (250 mM) peracetic acid (ppm), 30 min [4] | acetamide (250 mM) peracetic acid (ppm), 5 min [5] | acetamide (250 mM) peracetic acid (ppm), 30 min [5] | diacetamide (250 mM) peracetic acid (ppm), 5 min [6] | diacetamide (250 mM) peracetic acid (ppm), 30 min [6] | peracetic acid (ppm), 5 min ([7]; pH 4.0, triacetin 250 mM) | peracetic acid (ppm), 30 min ([7]; pH 4.0, triacetin 250 mM) | peracetic acid (ppm), 5 min ([7]; pH 6.5, triacetin 250 mM) | peracetic acid (ppm), 30 min ([7]; pH 6.5, triacetin 250 mM) |
| --- | --- | --- | --- | --- | --- | --- | --- | --- | --- | --- | --- | --- | --- | --- | --- | --- | --- | --- |
| B1 | 0 ppm | 102 ppm | 17 ppm | 54 ppm | 32 ppm | 135 ppm | 179 ppm | 0 ppm |  |  |  |  |  |  |  |  |  |  |
| B2 | 0 ppm | 7 ppm | 0 ppm | 0 ppm | 14 ppm | 0 ppm | 238 ppm | 117 ppm |  |  |  |  |  |  |  |  |  |  |
| B3 | 0 ppm | 8 ppm | 11 ppm | 8 ppm | 206 ppm | 132 ppm | 216 ppm | 113 ppm |  |  |  |  |  |  |  |  |  |  |
| B4 | 0 ppm | 0 ppm | 0 ppm | 0 ppm | 165 ppm | 53 ppm | 135 ppm | 0 ppm |  |  |  |  |  |  |  |  |  |  |
| B5 |  |  |  |  |  |  |  |  | 150 ppm | 194 ppm | 26 ppm | 43 ppm | 66 ppm | 99 ppm |  |  |  |  |
| B6 |  |  |  |  |  |  |  |  | 270 ppm | 214 ppm | 34 ppm | 49 ppm | 104 ppm | 100 ppm | 24 ppm | 7 ppm | 323 ppm | 669 ppm |
